Data on one substance can be found in article doi:10.1101/2024.07.21.604498.

The target of the test is hERG channel with a deleted PAS domain fused to Citrine (S620T) (human) (UniProt Q12809). Nature of the test: FRET or BRET.

For the substance “hERG PAS domain fused to CFP (from UniProt Q12809 1-135) (domain or fragment)”, the Ratio A (F436/F500) was determined as 0.37 and the Ratio A-Ratio A0 (proportional to FRET efficiency) worked out at 0.21.
